# Experimental data published in patent US20110009597A1, “RECOMBINANT GANODERMA LUCIDIUM IMMUNOMODULATORY PROTEIN (rLZ-8) AND USES THEREOF” (priority 2008, published 2011).
# Experiments:
# [1] = test system: Mouse hepatoma cell strain H22; test: H22 subcutaneous tumor inhibition experiment; assay type: in vivo, Mice; conditions: 10 days
# Protocol: Mice, weight 18-22g, males and females were divided equally, from Jilin University Laboratory Animal Center. Mouse hepatoma cell strain H22, offered by our laboratory. Cyclophosphamide (CTX), offered by Jiangsu Hengrui Medicine Co., Ltd., lot number: 06101921.
# H22 hepatoma cells experiment group were divided into normal control group, negative control group, positive control group, rLZ-8 low-dose treatment group (0.25 mg·kg^−1), rLZ-8 medium-dose treatment group (0.5 mg·kg^−1), rLZ-8 high-dose treatment group (1 mg·kg^−1). For each group 10 mice.
# H22 subcutaneous tumor tumor inhibition experiment methods: Select well-growing 1-122 cells, dilute appropriately with sterile saline into a tumor cell suspension, cell counts for 10^7·L^−1, under the right armpit of each mouse inoculated subcutaneously 0.2 ml (except for the normal control group). Treatment after 24 h of vaccination. Normal control group and negative control group were given saline 0.2 ml·each^−1·d^−1, intraperitoneal injection; positive control group were given cyclophosphamide 20 mg·kg^−1, 0.2 ml·each^−1·d^−1, intraperitoneal injection. rLZ-8 treatment groups were given doses of tail venous injection respectively, 0.2 ml·each^−1·d^−1, in 10 consecutive days. Draw blood from orbital venous plexus 10 days before and after medication respectively, sent to Jilin University No. 1 Hospital clinical laboratory to test and analyze the number of WBC. Kill all the mice the next day of drug withdrawal at cervical dislocation, dissected anatomically and took out the tumors, weigh tumors, calculated the inhibition rate using the following equation:
# Inhibition rate (%)=(average tumore weight of the control group−average tumor weight of the experiment group)/average tumor weight of the control group×100%
# WBC [2] = test: Cyclophosphamide low-leucocyte mice model, WBC; assay type: in vivo; set-up: unit not given here
# Protocol: rLZ-8 preparation of sterile saline. Divide them into 5 μg·kg^−1, 2.5 μg√kg^−1, 1.25 μg·kg^−1, 0.62 μg·kg^−1 dose groups.
# Genlei™ Scimax™ [Recombinant human granulocyte colony-stimulating factor injection (rhG-CSF)], production lot: 20060403; 75 μg/vial is prepared with sterile normal saline into the preparation of 3.2 μg·kg^−1, 0.2 ml/vial.
# Cyclophosphamide (CP) for injection (the production lot number 050216; 200 mg/vial) is prepared with sterile normal saline into the preparation of 12.5 mg·kg^−1, 0.2 ml/vial.
# Normal control group, several protein dose groups, positive control group (Genlei™ Scimax™).
# (§1) Excluding the normal control group (given same normal saline), each group of mice were given tail vein injection of cyclophosphamide, 1.25 μg·kg^−1, 0.2 ml/vial, for 3 consecutive days. On 3rd day, rat tail venous blood sampling, sent to Jilin University First Hospital laboratory, cell analyze the number of WBC. After successful modeling, they were given to the above groups respective dose of rLZ-8 and positive drugs (Genlei™ Scimax™) treatment, the normal control group and CP groups were given same normal saline, on the 3rd, 7th and 14th day of the treatment to draw venous blood from mice tail respectively, sent to Jilin University First Hospital testing the numbers of WBC. Compare WBC changes before and after the treatment for analysis of drug efficacy.
# [3] = test system: mouse peritoneal S180 tumor cells; test: S180 ascites tumor inhibition experiment; assay type: in vivo, Mice; conditions: rLZ-8 0.25-1 mg·kg^−1 tail venous injection, 10 days
# Protocol: Treatment after 24 h of vaccination. […] Daily weighing, observe the weight changes of mice, drawing weight growth curves.
# WBC [4] = test: Cyclophosphamide low-leucocyte rat model, WBC; assay type: in vivo, rats; set-up: unit not given here
# Protocol: rLZ-8 preparation of sterile saline. Divide them into 20 μg·kg^−1, 10 μg·kg^−1, 5 μg·kg^−1, 2.5 μg·kg^−1, 1.25 μg·kg^−1, 0.625 μg·kg^−1, 0.31 μg·kg^−1 dose groups.
# Genlei™ Scimax™ [Recombinant human granulocyte colony-stimulating factor injection (rhG-CSF)], production lot: 20060403; 75 μg/vial is prepared with sterile normal saline into the preparation of 9.45 μg·ml^−1, 0.1 ml/vial.
# Cyclophosphamide (CP), the production lot number 050216; 200 mg/vial is prepared with sterile normal saline into the preparation of 20 mg·ml^−1, 0.1 ml/vial, namely, 49 mg·kg^−1.
# Normal control group, protein low-dose group, protein medium-dose group, protein high-dose group, positive control group (Genlei™ Scimax™)
# as §1, with “rats” for “mice”, “20 mg·ml^−1, 0.1” for “1.25 μg·kg^−1, 0.2”
# [5] = rLZ-8 0.25 mg·kg^−1 tail venous injection
# [6] = rLZ-8 0.5 mg·kg^−1 tail venous injection
# [7] = rLZ-8 1 mg·kg^−1 tail venous injection
molecule,measurement,setting,value
"rLZ-8: Recombinant Ganoderma Lucidum Immune Regulatory Protein expressed in Pichia pastoris (protein, UniProt P14945 2-111, looked up) Immunomodulatory protein Ling …: SDTALIFRLAWDVKKLSFDYTPNWGRGNPNNFIDTVTFPKVLTDKAYTYRVAVSGRNLGVKPSYAVESDGSQKVNFLEYNSGYGIADTNTIQVFVVDPDTNNDFIIAQWN",Inhibition rate (%),[1]; [5],16.7%
same,Tumor weight,[1]; [5],1.00 ± 0.03 g
same,Inhibition rate (%),[1]; [6],30.0%
same,Tumor weight,[1]; [6],0.84 ± 0.02 g
same,Inhibition rate (%),[1]; [7],42.5%
same,Tumor weight,[1]; [7],0.69 ± 0.03 g
same,"WBC, 3rdday of medication",WBC [2]; rLZ-8 0.62 μg·kg−1,6.4 ± 0.41
same,"WBC, 7thday of medication",WBC [2]; rLZ-8 0.62 μg·kg−1,27.2 ± 0.10
same,"WBC, 14thday of medication",WBC [2]; rLZ-8 0.62 μg·kg−1,13.9 ± 0.17
same,"WBC, 3rdday of medication",WBC [2]; rLZ-8 1.25 μg·kg−1,8.1 ± 0.17
same,"WBC, 7thday of medication",WBC [2]; rLZ-8 1.25 μg·kg−1,19.7 ± 0.17
same,"WBC, 14thday of medication",WBC [2]; rLZ-8 1.25 μg·kg−1,13.9 ± 0.14
same,"WBC, 3rdday of medication",WBC [2]; rLZ-8 2.5 μg·kg−1,6.6 ± 0.77
same,"WBC, 7thday of medication",WBC [2]; rLZ-8 2.5 μg·kg−1,22.8 ± 0.15
same,"WBC, 14thday of medication",WBC [2]; rLZ-8 2.5 μg·kg−1,15.2 ± 0.11
same,"WBC, 3rdday of medication",WBC [2]; rLZ-8 5 μg·kg−1,5.0 ± 0.12
same,"WBC, 7thday of medication",WBC [2]; rLZ-8 5 μg·kg−1,20.3 ± 0.11
same,"WBC, 14thday of medication",WBC [2]; rLZ-8 5 μg·kg−1,14.3 ± 0.21
same,growth of peritoneal S180 tumor cells (body weight curve),[3],inhibited mouse peritoneal S180 tumor cells growth
same,"WBC, 3rdday of medication",WBC [4]; rLZ-8 0.31 μg·kg−1,1.9 ± 0.17
same,"WBC, 7thday of medication",WBC [4]; rLZ-8 0.31 μg·kg−1,13.5 ± 0.13
same,"WBC, 14thday of medication",WBC [4]; rLZ-8 0.31 μg·kg−1,11.0 ± 0.31
same,"WBC, 3rdday of medication",WBC [4]; rLZ-8 0.62 μg·kg−1,5.2 ± 0.14
same,"WBC, 7thday of medication",WBC [4]; rLZ-8 0.62 μg·kg−1,12.8 ± 0.74
same,"WBC, 14thday of medication",WBC [4]; rLZ-8 0.62 μg·kg−1,12.1 ± 0.24
same,"WBC, 3rdday of medication",WBC [4]; rLZ-8 1.25 μg·kg−1,2.8 ± 0.12
same,"WBC, 7thday of medication",WBC [4]; rLZ-8 1.25 μg·kg−1,11.0 ± 0.47
same,"WBC, 14thday of medication",WBC [4]; rLZ-8 1.25 μg·kg−1,10.3 ± 0.45
same,"WBC, 3rdday of medication",WBC [4]; rLZ-8 2.5 μg·kg−1,1.7 ± 0.18
same,"WBC, 7thday of medication",WBC [4]; rLZ-8 2.5 μg·kg−1,12.8 ± 0.11
same,"WBC, 14thday of medication",WBC [4]; rLZ-8 2.5 μg·kg−1,10.6 ± 0.29
same,"WBC, 3rdday of medication",WBC [4]; rLZ-8 5 μg·kg−1,2.6 ± 0.64
same,"WBC, 7thday of medication",WBC [4]; rLZ-8 5 μg·kg−1,17.6 ± 0.23
same,"WBC, 14thday of medication",WBC [4]; rLZ-8 5 μg·kg−1,11.2 ± 0.26
same,"WBC, 3rdday of medication",WBC [4]; rLZ-8 10 μg·kg−1,1.6 ± 0.71
same,"WBC, 7thday of medication",WBC [4]; rLZ-8 10 μg·kg−1,15.8 ± 0.33
same,"WBC, 14thday of medication",WBC [4]; rLZ-8 10 μg·kg−1,10.9 ± 0.21
same,"WBC, 3rdday of medication",WBC [4]; rLZ-8 20 μg·kg−1,1.6 ± 0.33
same,"WBC, 7thday of medication",WBC [4]; rLZ-8 20 μg·kg−1,15.8 ± 0.13
same,"WBC, 14thday of medication",WBC [4]; rLZ-8 20 μg·kg−1,9.8 ± 0.19
